Earlier results, collected in publication PMC4815344.

Target: soluble epoxide hydrolase (Homo sapiens) (UniProt P34913)

Chain of soluble epoxide hydrolase (P34913 whole entry): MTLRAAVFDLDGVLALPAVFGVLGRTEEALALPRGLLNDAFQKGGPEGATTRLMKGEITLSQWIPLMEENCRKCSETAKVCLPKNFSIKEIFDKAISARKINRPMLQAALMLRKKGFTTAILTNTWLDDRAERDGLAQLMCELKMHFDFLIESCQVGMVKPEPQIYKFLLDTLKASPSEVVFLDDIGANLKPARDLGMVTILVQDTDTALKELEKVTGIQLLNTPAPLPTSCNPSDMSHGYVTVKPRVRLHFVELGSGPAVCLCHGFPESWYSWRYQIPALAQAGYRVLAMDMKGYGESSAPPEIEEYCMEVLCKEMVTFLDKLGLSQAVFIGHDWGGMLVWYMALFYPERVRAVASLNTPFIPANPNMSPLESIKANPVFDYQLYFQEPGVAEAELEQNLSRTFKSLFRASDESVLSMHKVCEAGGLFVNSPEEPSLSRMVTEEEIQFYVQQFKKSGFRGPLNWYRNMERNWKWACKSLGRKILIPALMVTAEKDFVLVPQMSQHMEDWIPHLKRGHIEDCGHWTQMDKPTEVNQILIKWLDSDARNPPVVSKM

For “soluble epoxide hydrolase (from UniProt P34913)”, the Kd is given as 5 pM.
